# Measurements published in publication PMC6123711, “Conformational signatures in β-arrestin2 reveal natural biased agonism at a G-protein-coupled receptor” (Communications Biology, 2018).
# B1: Spexin (peptide, UniProt Q9BT56 27-116, looked up)
# Spexin: APQRLLERRNWTPQAMLYLKGAQGRRFISDQSRRKDLSDRPLPERRSPNPQLLTIPEAATILLASLQKSPEDEEKNFDQTRFLEDSLLNW
# modifications: Spexin
# notes: endogenous peptide ligand of Galr2 and Galr3; synthesized by AnyGen
# Tests used:
# [1] = tested on: β-arrestin1–Galr2 interaction (Galr2); assay: β-Arrestin1 recruitment using NanoBit technology; assay type: cell-based, human; conditions: for Log(τ/KA), β-Arrestin1: HEK293 cells, luminescence at 5 min after agonist, operational model (Eq. 2); for Log(τ/KA), β-Arrestin1 / ΔLog(τ/KA), β-Arrestin1: mean ± s.e.m. of three experiments in triplicate; for ΔLog(τ/KA), β-Arrestin1: normalized to Galanin (reference agonist), in parenthesis
# Source text: The β-arrestin recruitment assays were developed based on a structural complementation assay using NanoBit technology. Briefly, NanoBit technology is a system that basically consists of Nano luciferase (Nluc), which is a small protein that catalyzes a bright luminescent reaction. To create a complementation system, Nluc was separated into two subunits that individually produce very little enzymatic activity. […] Because of this low affinity for each other, these two fragments can bind when they are in close proximity. The interaction between the LgBit and the SmBit can be driven by the interactions of the fusion partners, allowing them to study protein–protein interaction in live cells. As the interaction is reversible, the association and dissociation can be monitored. There is no lag time in the loss of luminescence, and so the immediate detection allows for accurate assessment of temporal dynamics. […] To accurately monitor β-arrestin recruitment, four plasmid combinations between LgBit and SmBit with the fusion partners Galr2 and β-arrestins were screened. The plasmid combination with the highest luminescence signal was chosen for further studies (Fig. 2a, Supplementary Fig. 1). Using data points at 5 min after ligand stimulation, we obtained dose–response curves that corresponded to β-arrestin1/2 recruitment (Fig. 2d, e, Supplementary Fig. 2).
# Fig. 2 The effect of different endogenous ligands in β-arrestin1/2 recruitment. a Schematic representation of the structural complementation assay used to monitor β-arrestin1/2–Galr2 interactions. Kinetic traces of β-arrestin1 (b) and β-arrestin2 (c) recruitment after Galr2 activation with 1 μM of three different agonists. Dose–response curves for recruitment of β-arrestin1 (d), and β-arrestin2 (e). Luminescence signal intensity obtained at 5 min after agonist stimulation was measured. […] The results are expressed as mean ± s.e.m. of three experiments performed in triplicate; each triplicate was averaged before calculating the s.e.m. The arrows indicate the time at which the cells were treated with the different ligands
# (§1) Quantification of bias between each pathway was performed using Galanin as a reference ligand. All incubations for the different signaling assays were performed in serum-free medium to prevent peptide degradation.
# HEK293 cells were obtained from the American Type Culture Collection (ATCC, CRL-1573; Manassas, VA, USA). They were maintained in Dulbecco’s modified Eagle’s medium (DMEM) supplemented with 10% fetal bovine serum (FBS), 100 U/ml penicillin G, and 100 μg/ml streptomycin (Invitrogen; Carlsbad, CA, USA). During the experiments, the cells were tested for mycoplasma using a Universal Mycoplasma Detection Kit (ATCC). At 1 day before transfection, the cells were seeded in 96-well plates at a density of 2.5 × 10^4 cells per well. A mixture containing 50 ng β-arrestin construct containing the LgBit or SmBit and 50 ng Galr2 containing one of the two domains of Nluc and 0.2 μl Lipofectamine 2000 (Invitrogen) was prepared and added to each well. We tested four β-arrestin-Galr2 spatial orientations. […] After a 10-min incubation, 25 μl substrate (furimazine) was added and once every minute subsequent luminescence measurements were taken for 10 min for signal stabilization. A total of 10 μl ligand was then added to each well and luminescence measurements were recorded immediately and once every minute for 1 h (Synergy 2 Multi-Mode Microplate Reader BioTek, Winooski, VT, USA).
# [2] = tested on: Galr2–β-arrestin2–clathrin complex; assay: β-arrestin2–clathrin interactions (NanoBit); assay type: cell-based, human; conditions: for Log(τ/KA), Clathrin:β-arrestin2 / formation of Galr2–β-arrestin2–clathrin complex: data at 5 min after agonist; for Log(τ/KA), Clathrin:β-arrestin2: operational model (Eq. 2); for Log(τ/KA), Clathrin:β-arrestin2 / ΔLog(τ/KA), Clathrin:β-arrestin2: mean ± s.e.m. of three experiments in triplicate; for formation of Galr2–β-arrestin2–clathrin complex: dose–response, normalized to Galanin; for ΔLog(τ/KA), Clathrin:β-arrestin2: normalized to Galanin (reference agonist), in parenthesis
# Source text: The interaction between β-arrestin2 and clathrin induced by the activation of Galr2 was examined using the NanoBit technology. We measured real-time association of the protein complex Galr2–β-arrestin2–clathrin. We constructed β-arrestin2 and clathrin subunit A tagged with LgBit or SmBit at the C or N termini and screened eight different plasmid combinations, out of which only one combination (β-arrestin2–LgBit:SmBit–clathrin) responded to ligand stimulation (Fig. 3, Supplementary Fig. 3). Before ligand stimulation, Galr2, β-arrestin2, and clathrin were not in close proximity and so the basal luminescence was very low. […] A time course experiment was initially performed to determine the time at which the maximal increase in luminescence occurred following agonist stimulation. All ligands except for Fmoc-dA4-dQ14 induced different fold increase in luminescence immediately after ligand treatment (Fig. 3b). […] Galanin- and Spexin-induced increases in luminescence were attenuated by pretreatment of cmpd101, a G-protein-coupled receptor kinase 2/3 (GRK2/3) inhibitor, indicating contribution of GRK2/3 in the formation of Galr2–β-arrestin2–clathrin complex (Fig. 3).
# The arrows indicate the time when the cells were treated with different ligands. […] The results are expressed as mean ± s.e.m. of three experiments performed in triplicate. Each triplicate was averaged before calculating the s.e.m.
# as §1
# One day before transfection, cells were seeded in 96-well plates at a density of 2.5 × 10^4 cells per well. A mixture containing 35 ng β-arrestin construct containing the LgBit or SmBit, 35 ng clathrin subunit A containing one of the two domains of Nluc and 30 ng untagged receptor, and 0.2 μl Lipofectamine 2000 (Invitrogen) was prepared and added to each well. We followed the assay manufacturer’s instructions and tested eight β-arrestin-clathrin plasmid combinations. In only one plasmid combination we were able to observe luminescent signal and it was chosen for further experiments. At 24 h post transfection, medium was aspirated and replaced with 100 μl OPTIMEM at room temperature. After a 10-min incubation, 25 μl substrate (furimazine) was added and the luminescence was monitored once every minute for 10 min. Then, 10 μl ligand was added to each well and the luminescence values were recorded immediately and once every minute for 1 h (Synergy 2 Multi-Mode Microplate Reader BioTek).
# Galr2 = conditions: cited from earlier work
# Source text: (§2) G-protein-coupled receptors (GPCRs) are the largest family of cell surface receptors that communicate extracellular stimuli to the cell interior[1]. Biased ligands are of particular interest because they offer the possibility to design a novel class of therapeutic agents. In some GPCRs, biased ligands that preferentially activate G-protein-dependent signaling have therapeutic potential. […] Most descriptions of biased ag ...
# [3] = tested on: galanin receptor 3 (Galr3); conditions: cited from earlier work
# Source text: as §2
Molecule,"Log(τ/KA), β-Arrestin1 [1]","ΔLog(τ/KA), β-Arrestin1 [1]","Log(τ/KA), Clathrin:β-arrestin2 [2]",formation of Galr2–β-arrestin2–clathrin complex [2],"ΔLog(τ/KA), Clathrin:β-arrestin2 [2]",affinity toward Galr2 (Galr2),affinity toward Galr3 [3],"agonism in β-arrestin1 recruitment ([1]; dose–response, data at 5 min after ligand stimulation, compared with Galanin)",activation of Galr2 (Galr2),activation of Galr3 [3]
Galanin [reference compound],7.18 ± 0.01,0.00 ± 0.01,8.00 ± 0.18,highest response,0.00 ± 0.20,high affinities,low affinity,–,–,–
B1,6.60 ± 0.08,−0.60 ± 0.01,6.22 ± 0.10,lower potency and efficacy than Galanin,−1.80 ± 0.10,–,–,partial agonists,activates Galr2 and Galr3 with high affinities,activates Galr2 and Galr3 with high affinities
